Source: paper PMC11190991, “Encapsulation of Transketolase into In Vitro-Assembled Protein Nanocompartments Improves Thermal Stability” (ACS Applied Bio Materials, 2024)
Blank lines part the entries; values can stand above or below the molecule they belong to.

Experiments:
[1] = target: E. coli transketolase with C-terminal T. maritima cargo loading peptide (E. coli | T. maritima)
[2] = target: Thermotoga maritima encapsulin (T = 1 capsid shell) (Thermotoga maritima) (UniProt Q9WZP2); test: SEC; in vitro loading during reassembly (10 μM encapsulin monomer, cargo at stated molar ratio), SEC on Superose 6 to remove non-encapsulated cargo, co-eluted cargo seen by SDS-PAGE and quantified by densitometry against standard curves
[3] = target: Myxococcus xanthus encapsulin (T = 1 and T = 3 capsid shells) (Myxococcus xanthus) (UniProt Q1D6H4); test: as above
[4] = target: Myxococcus xanthus encapsulin (T = 1 and T = 3 capsid shells) (Myxococcus xanthus) (UniProt Q1D6H4); test: co-purification after co-expression + SDS-PAGE densitometry; in vivo loading: sfGFP-CLP co-expressed with Strep-tagged encapsulin in E. coli, capsids purified (SEC purified samples), cargo quantified by SDS-PAGE densitometry; single experiment
[5] = target: Thermotoga maritima encapsulin (T = 1 capsid shell) (Thermotoga maritima) (UniProt Q9WZP2); test: as above
[6] = target: the molecule itself; test: native gel or EMSA; BN-PAGE of samples disassembled in denaturant: 6 M GuHCl, 8 M urea (20 mM Tris-Cl pH 7.5), 0.15 M HCl pH 1.0 or 0.15 M NaOH pH 13.0
[7] = target: Q9WZP2; test: SEC; Superose 6 10/300 GL, 20 mM Tris-Cl, 50 mM NaCl, pH 7.5; A280 peak area of higher-order structures after reassembly against before disassembly; Tm_encap from 0.15 M NaOH, Mx_encap from 8 M urea

end-point transketolase activity (erythrulose from HPA and GA) of TK-TmCLP encapsulated in Tm encap, against free TK (100%) [1]: 50 % drop
stoichiometry N (dimers per capsid) [2]: 2.6
Molecule: E. coli transketolase with C-terminal T. maritima cargo loading peptide (enzyme)

stoichiometry N (copies per capsid) [3]: 20
stoichiometry N (copies per capsid) [4]: 31
Molecule: superfolder GFP with C-terminal M. xanthus cargo loading peptide

stoichiometry N (copies per capsid) [2]: 15
stoichiometry N (molecules per capsid) [5]: 2.94
Molecule: superfolder GFP with C-terminal T. maritima cargo loading peptide

B1: Thermotoga maritima encapsulin (T = 1 capsid shell) (natural protein, UniProt Q9WZP2 1-265, looked up)
chain: MEFLKRSFAPLTEKQWQEIDNRAREIFKTQLYGRKFVDVEGPYGWEYAAHPLGEVEVLSDENEVVKWGLRKSLPLIELRATFTLDLWELDNLERGKPNVDLSSLEETVRKVAEFEDEVIFRGCEKSGVKGLLSFEERKIECGSTPKDLLEAIVRALSIFSKDGIEGPYTLVINTDRWINFLKEEAGHYPLEKRVEECLRGGKIITTPRIEDALVVSERGGDFKLILGQDLSIGYEDREKDAVRLFITETFTFQVVNPEALILLKF
notes: T = 1 capsid, 1.97 MDa; also called T. maritima encapsulin; source: E. coli BL21 Star (DE3), purified (Strep-TactinXT); disassembled and reassembled in vitro; also co-expressed with sfGFP-TmCLP for in vivo loading; not shown: Strep-Tag II (after a GSG linker), C-terminal, kept; copies: 60
stoichiometry N [6]: 2
recovery of higher-order structures after reassembly (SEC peak area, 8-14 mL) [7]: we determined the recovery to be 82%
